Experiment [1] has as its target human preproinsulin (human). The conditions noted are these: scale: % of intracellular human insulin species left as proinsulin and intermediates.
Experiment [2] concerns the target human preproglucagon (human).
Experiment [3] has as its target mutated human preproglucagon (arginine to alanine at amino acid residue 52) (human).

PC2 (from UniProt P28841) (enzyme) showed an HPLC separation of intracellular immunoreactive insulin species (processing of human proinsulin to mature insulin in engineered RIN cells) in experiment [1] of 8.
PC3 (from UniProt P28840) (enzyme) displayed an HPLC separation of intracellular immunoreactive insulin species (processing of human proinsulin to mature insulin in engineered RIN cells) in experiment [1] of 8.
As to “peptidylglycine alpha-amidating monooxygenase (PAM) (from UniProt P14925) (enzyme)”, the NON (% TOTAL): non-amidated GLP-1 as percentage of total GLP-1 (non-amidated and amidated), by two specific immunoassays (% non-amidated of total GLP-1) in experiment [2] came out at 49; in experiment [3] it was 59.
